Results as given in US20250011453A1, “METHODS FOR TREATING CANCER USING A COMBINATION OF A PD-1 ANTAGONIST, AN ILT4 ANTAGONIST, AND CHEMOTHERAPEUTIC AGENTS” (Merck Sharp & Dohme LLC, priority 2021, published 2025).

Assay: Phase 1 open label, multi-arm, multi-center study of MK-4830 as monotherapy or in combination with pembrolizumab (NCT03564691): safety and tolerability
Type: in vivo, human

## MK-4830: anti-ILT4 antibody; light chain SEQ ID NO:5, heavy chain SEQ ID NO:10 (Table 4)
1600 mg dose level, MK-4830 monotherapy cohort
  Grade 3 drug-related AE: one episode of transient Grade 3 blood pressure increase
51 treated participants (monotherapy and pembrolizumab combination pooled), preliminary data, majority Grade 1
  participants with one or more drug-related AEs: 51%
All participants (51 treated), preliminary data
  Grade 4 or 5 drug-related AEs or SAEs: no Grade 4 or 5 drug-related AEs or SAEs
Participants with advanced solid tumors, MK-4830 monotherapy up to 1600 mg and MK-4830 up to 800 mg plus pembrolizumab, May 10, 2019 data cutoff
  target dose limiting toxicity (DLT) rate: not reached in any of the cohorts
